Results: patent US20120295802A1 (published 2012)
Square brackets hold non-standard residues; d marks the D form. Ends that are not written are not given here. * marks the point of attachment. Biotin = O=C1N[C@H]2[C@H](CS[C@H]2CCCCC(=O)*)N1; pS = N[C@@H](COP(=O)(O)O)C(=O)O

T1: endogenous BACH1 (full-length) of U2OS cells (Homo sapiens (Human), UniProt Q9BX63 1-1249)
T1 construct: Endogenous full-length protein in U2OS cell lysates, detected with a rabbit anti-BACH1 antibody; The phosphorylation state in the lysate was not measured; also called full-length BACH1; wild-type BACH1
T1 sequence: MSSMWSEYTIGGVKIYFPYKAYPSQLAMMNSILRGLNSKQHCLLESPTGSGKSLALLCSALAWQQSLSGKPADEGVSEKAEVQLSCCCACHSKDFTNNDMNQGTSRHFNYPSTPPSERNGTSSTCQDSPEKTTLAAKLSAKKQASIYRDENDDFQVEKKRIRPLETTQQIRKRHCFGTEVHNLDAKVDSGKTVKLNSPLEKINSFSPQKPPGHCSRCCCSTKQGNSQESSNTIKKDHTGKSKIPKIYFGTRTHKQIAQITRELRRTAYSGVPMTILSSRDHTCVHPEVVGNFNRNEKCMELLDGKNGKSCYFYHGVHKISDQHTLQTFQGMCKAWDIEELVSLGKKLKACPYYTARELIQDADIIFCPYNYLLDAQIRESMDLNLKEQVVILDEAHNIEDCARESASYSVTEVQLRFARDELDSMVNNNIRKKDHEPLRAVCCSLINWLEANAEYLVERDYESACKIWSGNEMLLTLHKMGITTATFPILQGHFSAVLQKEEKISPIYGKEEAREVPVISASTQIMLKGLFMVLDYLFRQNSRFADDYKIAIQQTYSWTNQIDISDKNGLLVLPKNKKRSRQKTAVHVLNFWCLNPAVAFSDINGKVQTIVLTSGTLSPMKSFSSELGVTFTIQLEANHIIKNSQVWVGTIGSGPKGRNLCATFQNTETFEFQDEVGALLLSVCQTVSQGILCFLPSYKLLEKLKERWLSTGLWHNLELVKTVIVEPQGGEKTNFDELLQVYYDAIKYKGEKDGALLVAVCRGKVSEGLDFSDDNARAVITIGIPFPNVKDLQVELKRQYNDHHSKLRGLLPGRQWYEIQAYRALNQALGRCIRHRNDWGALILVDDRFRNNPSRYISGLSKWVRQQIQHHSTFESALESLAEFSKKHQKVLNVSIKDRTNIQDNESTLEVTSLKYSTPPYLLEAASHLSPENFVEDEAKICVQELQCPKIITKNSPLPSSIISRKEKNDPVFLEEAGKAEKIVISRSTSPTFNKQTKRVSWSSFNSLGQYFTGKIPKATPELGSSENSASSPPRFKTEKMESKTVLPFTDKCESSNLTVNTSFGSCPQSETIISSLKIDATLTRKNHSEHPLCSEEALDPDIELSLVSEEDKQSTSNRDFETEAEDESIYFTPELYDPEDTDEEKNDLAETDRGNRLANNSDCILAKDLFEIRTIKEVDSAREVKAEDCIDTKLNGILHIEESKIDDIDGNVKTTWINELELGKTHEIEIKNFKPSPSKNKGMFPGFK

B1: myc-tagged BRCA1 tandem BRCT domain construct (residues 1313-1863) M1775R (other, not shown: small tags and cut ends)
chain: QDPFLIGSSKQMRHQSESQGVGLSDKELVSDDEERGTGLEENNQEEQSMDSNLGEAASGCESETSVSEDCSGLSSQSDILTTQQRDTMQHNLIKLQQEMAELEAVLEQHGSQPSNSYPSIISDSSALEDLRNPEQSTSEKAVLTSQKSSEYPISQNPEGLSADKFEVSADSSTSKNKEPGVERSSPSKCPSLDDRWYMHSCSGSLQNRNYPSQEELIKVVDVEEQQLEESGPHDLTETSYLPRQDLEGTPYLESGISLFSDDPESDPSEDRAPESARVGNIPSSTSALKVPQLKVAESAQSPAAAHTTDTAGYNAMEESVSREKPELTASTERVNKRMSMVVSGLTPEEFMLVYKFARKHHITLTNLITEETTHVVMKTDAEFVCERTLKYFLGIAGGKWVVSYFWVTQSIKERKMLNEHDFEVRGDVVNGRNHQGPKRARESQDRKIFRGLEICCYGPFTNRPTDQLEWMVQLCGASVVKELSSFTLGTGVHPIVVVQPDAWTEDNGFHAIGQMCEAPVVTREWVLDSVALYQCQELDTYLIPQIPHSHY
notes: also called M1775R cancer-associated mutant
B2: myc-tagged BRCA1 tandem BRCT domain construct (residues 1313-1863) P1749R (other, not shown: small tags and cut ends)
chain: QDPFLIGSSKQMRHQSESQGVGLSDKELVSDDEERGTGLEENNQEEQSMDSNLGEAASGCESETSVSEDCSGLSSQSDILTTQQRDTMQHNLIKLQQEMAELEAVLEQHGSQPSNSYPSIISDSSALEDLRNPEQSTSEKAVLTSQKSSEYPISQNPEGLSADKFEVSADSSTSKNKEPGVERSSPSKCPSLDDRWYMHSCSGSLQNRNYPSQEELIKVVDVEEQQLEESGPHDLTETSYLPRQDLEGTPYLESGISLFSDDPESDPSEDRAPESARVGNIPSSTSALKVPQLKVAESAQSPAAAHTTDTAGYNAMEESVSREKPELTASTERVNKRMSMVVSGLTPEEFMLVYKFARKHHITLTNLITEETTHVVMKTDAEFVCERTLKYFLGIAGGKWVVSYFWVTQSIKERKMLNEHDFEVRGDVVNGRNHQGRKRARESQDRKIFRGLEICCYGPFTNMPTDQLEWMVQLCGASVVKELSSFTLGTGVHPIVVVQPDAWTEDNGFHAIGQMCEAPVVTREWVLDSVALYQCQELDTYLIPQIPHSHY

Experiments:
[1] = biological target: T2, myc-tagged BRCA1 tandem BRCT domain construct (residues 1313-1863) mutated at Lys1702 alone (human, UniProt P38398 1313-1863); assay: pull-down of in vitro translated 35S-labelled protein on bead-immobilized peptide
T2 construct: also called Lys1702 mutant; K1702M
Method: (§1) FIG. 3A is a schematic representation of protein-peptide contacts between a BRCA1 tandem BRCT domain and the BACH1 phosphopeptide. Hydrogen bonds, Van der Waals interactions and water molecules are denoted by dashed lines, crescents, and circles respectively. In FIG. 3B, the wild-type and mutant myc-tagged BRCA1 tandem BRCT domain constructs containing the indicated mutations were analysed for binding to a bead-immobilized optimal tandem BRCT domain-interacting phosphopeptide, YDIpSQVFPF, or its non-phosphorylated counterpart. […] In FIG. 3C, U2OS cells transfected with wild-type and mutant myc-tagged BRCA 1 tandem BRCT domain constructs were analysed for association with endogenous BACH1.
(§2) An optimal phosphopeptide for binding the BRCA1 BRCTs was determined by oriented peptide library screening as described previously. This peptide was synthesized in both its phosphorylated and non-phosphorylated form with a biotin group at the N-terminus using N-α-FMOC-protected amino acids and standard BOP/HOBt coupling chemistry. These peptides were conjugated to streptavidin coated beads (Sigma-Aldrich). […] The bead-immobilized peptides (10 μL of beads) were added to 10 μL of the in vitro translated [³⁵S]-labeled protein pool in 150 μL binding buffer (50 mM Tris-HCl (pH7.6), 150 mM NaCl, 0.5% NP-40, 1 mM EDTA, 2 mM DTT, 8 μg/mL pepstatin, 8 μg mL⁻¹ aprotinin, 8 μg mL⁻¹ leupeptin, 800 μM Na3VO4, 25 mM NaF).

[2] = biological target: T3, myc-tagged BRCA1 tandem BRCT domain construct (from residue 1313) Y1853X (human, UniProt P38398 1313-1852); assay: as above
T3 construct: Stop at Tyr1853; also called Y1853X (truncates the last 11 residues)
Method: as §1, §2

[3] = biological target: T4, myc-tagged BRCA1 tandem BRCT domain construct (residues 1313-1863) mutated at Ser1655 alone (human, UniProt P38398 1313-1863); assay: as above
T4 construct: also called Ser1655 mutant; S1655A
Method: as §1, §2

[4] = biological target: B1; assay: as above
Method: as §1, §2

[5] = biological target: B2; assay: as above
Method: as §1, §2

[6] = biological target: T5, myc-tagged BRCA1 tandem BRCT domain construct (residues 1313-1863) S1655A/K1702M (human, UniProt P38398 1313-1863); assay: as above
T5 construct: also called K1702M/S1655A
Method: as §1, §2

[7] = biological target: myc-tagged BRCA1 tandem BRCT domain construct (residues 1313-1863) G1738E (human, UniProt P38398 1313-1863); assay: as above
Method: as §1, §2

[8] = biological target: T1, endogenous BACH1 (full-length) of U2OS …; assay: co-immunoprecipitation from transfected U2OS cells (anti-myc IP, anti-BACH1 blot)

Row | binding result [1] | binding result [2] | binding result [3] | binding result [4] | binding result [5] | binding result [6] | binding result [7] | binding result [8] | Binder
1 | no binding | no binding | no binding | no binding | no binding | no binding | no binding | – | Biotin-YDI[pS]QVFPF (Found by oriented peptide library screening; Conjugated to streptavidin-coated beads; also called phosphorylated biotinylated peptide) [optimal tandem BRCT domain-interacting phosphopeptide YDIpSQVFPF]
2 | – | – | – | – | – | – | – | no binding | B1
3 | – | – | – | – | – | – | – | no binding | B2
